Measured values published in patent publication US20020147170A1 (priority 2000, published 2002).

Key:
rat mu opioid receptor [1] = experiment: CRE-Luc luciferase reporter assay with forskolin stimulation; format: cell-based; conditions: CRE-Luc luciferase reporter, FIG. 4
From the text: (§1) The response element employed in this assay was the cAMP-response element (CRE), which is sensitive to Gαi mediated reductions in intracellular levels of cAMP. Signaling through the rat mu opioid receptor via Gαi inhibits adenylate cyclase, causing a decrease in intracellular cellular cAMP. Therefore, an increase in rat mu opioid receptor signaling induces a decrease in CRE mediated reporter activity.
(§2) Mutation induced Gαi-mediated decreases in intracellular cAMP were, prior to the present invention, more often measured by 1) stimulating cells with forskolin, which causes receptor-independent activation of adenylate cyclase and generates an intracellular pool of cAMP; 2) stimulating the cells with ligand; and 3) measuring the ligand-induced, receptor-dependent Gαi-mediated decrease in the intracellular cAMP pool (e.g., using a radioimmunoassay (e.g., New England Nuclear, Boston, Mass.)). […] Specifically, cells transfected with a CRE-Luc reporter construct (Stratagene, La Jolla, Calif.) and an expression vector encoding either a wild-type or a mutant rat mu opioid receptor were stimulated with 0.5 μM or 2 μM forskolin to increase the intracellular pool of cAMP. The basal (and ligand-induced) level of receptor activity was then measured using a standard luciferase assay (see FIG. 4). Coexpression of the receptor of interest with a luciferase reporter gene construct allows one to measure light emission as a readout for basal signaling.
(§3) This decrease in activity indicates an increase in the basal level activity of the mutant rat mu opioid receptor, because activation of the rat mu opioid receptor induces a decrease in CRE-mediated reporter activity (FIG. 4, compare 0.5 μM wild-type vs. 0.5 μM mutant and 2 μM wild-type vs. 2 μM mutant).

MC-4 receptor [2] = target: T1, MC-4 receptor (Homo sapiens, UniProt P32245, D146M); experiment: SMS-Luc luciferase reporter assay in HEK293 cells; format: cell-based
T1 construct: expressed in transfected cells; host or cells: HEK293
Method: Briefly, HEK293 cells were cotransfected, as described above, with an expression vector encoding either the wild-type MC-4 receptor or the Asp146Met mutant MC-4 receptor and the reporter construct, SMS-Luc. As a negative control, cells were transfected with SMS-Luc and pcDNA1. Basal and ligand (αMHS) induced activity of the negative control, the wild-type MC-4 receptor, and the Asp146Met mutant MC-4 receptor were measured using the luciferase assay described above.

MC-4 receptor [3] = target: T1, MC-4 receptor; experiment: Basal level cAMP production; format: cell-based; conditions: FIG. 2
Method: As but one example, ligand-dependent activation of the melanocortin-4 (MC-4) receptor is assayed by measuring an increase in cAMP production (Huszar et al., Cell 88:131-141, (1997)).

rat mu opioid receptor [4] = target: T2, rat mu opioid receptor (Rattus norvegicus, UniProt P33535, N150A); experiment: SRE-Luc/Gq5i luciferase reporter assay in HEK293 cells; format: cell-based; conditions: see Example 1
T2 construct: expressed in transfected cells; host or cells: HEK293 (stated for the SRE-Luc/Gq5i assay); receptor gene in pcDNA1
From the text: (§4) A positive assay for Gαi coupling (i.e., one that yields an increase in luciferase activity upon receptor activation, instead of a negative assay, one that yields a decrease in luciferase activity upon receptor activation), provides a detectable output signal and less interassay variation. It was hypothesized that Gαi coupling could be detected by altering the signaling pathway generated by Gαi coupled receptors. A chimeric G protein (Gqi5, Broach and Thorner, Nature 384 (Suppl.): 14-16 (1996)) that contains the entire Gαq protein having five C-terminal amino acids from Gαi attached to the C-terminus of Gαq has been generated. This chimeric G protein is recognized as Gαi by Gαi coupled receptors, but switches the receptor induced signaling from Gαi to Gαq. This allows Gαi receptor coupling to be detected using a positive assay by use of the Gαq responsive SMS-Luc or SRE-Luc construct (Stratagene, La Jolla, Calif.). SMS and SRE preferably respond to Gαq mediated inositol and calcium production. Moreover, detection can be carried out in the absence of forskolin pre-stimulation of cells.
(§5) Reagents & Solutions: The cell culture media used in the assays described below was Gibco BRL #12100-046. This media was made according to manufacturer's recipe, pH adjusted to 7.2, filtered (0.22 micron pore), and supplemented with 1% Pen/Strep (Gibco #15140-122; 100% penicillin G 10,000 units/ml, and streptomycin 10,000 μg/ml) and 10% fetal bovine serum. Cell culture media lacking 10% fetal bovine serum was also generated. DNA used in the transfection experiments was purified and quantitated by measuring the absorbance at OD260. A LucLite Luciferase Assay Kit (Packard) was used to quantitate luciferase activity. Transfections were carried out using LipofectAMINE Reagent (Gibco #18324-012).
(§6) The rat mu opioid receptor is a Gαi coupled receptor. Therefore we chose to use the Gq5i reporter system, described in detail above (Broach and Thorner, supra), which switches the signaling pathway from Gαi to Gαq for reliable positive readout. HEK293 cells were transfected with the reporter construct SRE-Luc, an expression vector containing nucleic acid encoding Gq5i (Broach and Thorner, supra), and an expression vector containing nucleic acid encoding either the wild-type or the Asn150Ala mutant rat mu opioid receptor. Basal and ligand-stimulated luciferase activity was measured. The ligand used in this assay was [D—Ala^2—MePhe^4, Gly-ol^5]enkephalin] (DAMGO). As a negative control, HEK293 cells were transfected with pcDNA1 (empty vector DNA), SRE-Luc, and the expression vector containing nucleic acid encoding Gq5i (Broach and Thorner, supra).
(§7) The luciferase assay was carried out as follows. On day 1, HEK293 cells in a T75 flask were washed with 15 ml serum-free media (or PBS), trypsinized with 5 ml 0.05% trypsin-EDTA (Gibco #25300-062), incubated at 37° C. for 3 minutes at which time 6-7 ml complete HEK293 media (Gibco #12100-046) and 10% Fetal Bovine Serum (Intergen #1050-90) were added. Thereafter, cells were collected in 50 ml centrifuge tubes, pelleted at 800-900 rpm (RCF˜275), and resuspend in 20 ml complete media. The cells were counted using a haemocytometer and diluted to 85,000 cells/ml in complete media. Using a repeat pipettor or cell plater, 100 μl of cells were added to each well of a Primaria 96-well plate (Falcon #353872). Cells were then incubated at 37° C., 5% CO2 until use at 48 hours.
(§8) On day 3, cells were transfected using LipofectAMINE™ according to the manufacturer's protocol (Gibco #18324-012, Rockville, Md.).
(§9) On day 4, cells were stimulated as follows. Ligands for the receptor, either DAMGO or a non-peptide ligand (e.g., naloxone or naltrexone), were diluted to a desired concentration in serum-free media containing 0.15 mM PMSF (or other protease inhibitor(s)). […]

rat mu opioid receptor [5] = experiment: as above; format: cell-based; conditions: SRE + Gq5i
From the text: as §4, §5, §6, §7, §8, §9

rat mu opioid receptor [6] = target: T2, rat mu opioid receptor; experiment: CRE-Luc luciferase reporter assay with forskolin stimulation; format: cell-based; conditions: CRE-Luc, 0.5 μM or 2 μM forskolin
From the text: as §1, §2, §3

mu opioid receptor = experiment: Luciferase activity on DAMGO titration (FIG. 15); format: cell-based, rat; conditions: DAMGO titrated onto cells
Method: Ligand (Damgo) was titrated onto the cells expressing either the mutant or the wild-type mu opioid receptor and the luciferase activity was measured to assess the sensitivity of the receptor to ligand stimulation.
It is important to note that the mu opioid receptor of the invention is also hypersensitive.

CCK-BR [7] = target: T3, CCK-BR (Homo sapiens, UniProt P32239, L325E); experiment: Luciferase reporter assay (SMS-Luc, SRE-Luc) in HEK293 cells; format: cell-based
T3 construct: expressed in transfected cells; host or cells: HEK293
T3 sequence (P32239 1-447 L325E): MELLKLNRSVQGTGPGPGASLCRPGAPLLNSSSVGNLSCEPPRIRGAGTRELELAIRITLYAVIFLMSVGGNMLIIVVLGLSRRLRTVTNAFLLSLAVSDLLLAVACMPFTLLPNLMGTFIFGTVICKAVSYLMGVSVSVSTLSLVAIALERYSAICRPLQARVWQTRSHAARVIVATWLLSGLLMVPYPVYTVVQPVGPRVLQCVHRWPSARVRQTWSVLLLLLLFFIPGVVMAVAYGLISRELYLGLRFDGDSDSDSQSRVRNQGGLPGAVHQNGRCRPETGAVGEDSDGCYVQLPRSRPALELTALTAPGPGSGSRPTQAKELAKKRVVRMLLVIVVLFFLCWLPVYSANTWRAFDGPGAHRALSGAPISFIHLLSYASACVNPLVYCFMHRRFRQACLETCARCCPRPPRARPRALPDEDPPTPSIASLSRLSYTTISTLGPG
From the text: as §1
HEK293 cells were transfected (as described above) with SMS-Luc and an expression vector encoding any one of pcDNA1, wild-type CCK-BR, or Leu325Glu CCK-BR.

CCK-BR [8] = conditions: COS-7 cells, absence of agonist; cited from earlier work

T1 sequence (P32245 whole entry D146M): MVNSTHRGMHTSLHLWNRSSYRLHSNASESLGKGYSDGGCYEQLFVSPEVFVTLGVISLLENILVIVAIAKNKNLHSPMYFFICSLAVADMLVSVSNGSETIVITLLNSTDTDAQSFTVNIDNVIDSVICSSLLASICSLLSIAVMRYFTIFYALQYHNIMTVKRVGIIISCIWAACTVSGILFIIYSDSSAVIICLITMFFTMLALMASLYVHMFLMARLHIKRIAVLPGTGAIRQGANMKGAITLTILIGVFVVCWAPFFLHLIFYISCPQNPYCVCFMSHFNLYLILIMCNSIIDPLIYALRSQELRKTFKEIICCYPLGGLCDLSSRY

C[C@@H](NC(=O)[C@@H](N)Cc1ccc(O)cc1)C(=O)NCC(=O)N(C)[C@@H](Cc1ccccc1)C(=O)NCCO [DAMGO, [D—Ala^2—MePhe^4, Gly-ol^5]enkephalin], reference compound]
effect of agonist stimulation of the receptor on forskolin induced activity (rat mu opioid receptor [1]): decrease in forskolin induced activity

Asp146Met mutant MC-4 receptor: melanocortin-4 receptor with Asp at position 146 (DRY motif) replaced by Met
basal level activity vs wild-type (MC-4 receptor [2]): higher basal level activity than its wild-type counterpart
constitutive activity by basal level cAMP production (MC-4 receptor [3]): constitutive activity

B1: Asn150Ala rat mu opioid receptor: rat mu opioid receptor (SEQ ID NO: 1) with Asn to Ala point mutation at position 150, expressed from pcDNA1 (protein)
chain: MDSSTGPGNTSDCSDPLAQASCSPAPGSWLNLSHVDGNQSDPCGLNRTGLGGNDSLCPQTGSPSMVTAITIMALYSIVCVVGLFGNFLVMYVIVRYTKMKTATNIYIFNLALADALATSTLPFQSVNYLMGTWPFGTILCKIVISIDYYAMFTSIFTLCTMSVDRYIAVCHPVKALDFRTPRNAKIVNVCNWILSSAIGLPVMFMATTKYRQGSIDCTLTFSHPTWYWENLLKICVFIFAFIMPVLIITVCYGLMILRLKSVRMLSGSKEKDRNLRRITRMVLVVVAVFIVCWTPIHIYVIIKALITIPETTFQTVSWHFCIALGYTNSCLNPVLYAFLDENFKRCFREFCIPTSSTIEQQNSTRVRQNTREHPSTANTVDRTNHQLENLEAETAPLP
basal activity relative to the maximal level of ligand-stimulated second messenger signaling (rat mu opioid receptor [4]): exceeded 50%
Average Ligand Stimulated Activity (Light Emission) (rat mu opioid receptor [5]; HEK293 cells, ligand DAMGO): 86,996
Average Basal Activity (Light Emission) (rat mu opioid receptor [5]; HEK293 cells, no ligand): *56,498
stimulation of basal level activity (rat mu opioid receptor [5]; mutant vs wild-type receptor, listed as Asn150Ala mutant mu opioid receptor): approximately 6.5 fold
basal activity (forskolin-induced, no receptor stimulation) vs wild-type receptor (rat mu opioid receptor [6]): reduction in basal activity
level of constitutive activity relative to ligand-stimulated activity of the wild-type receptor (rat mu opioid receptor [6]): 50%
sensitivity of the receptor to ligand stimulation vs wild-type (mu opioid receptor; listed as Asn150Ala rat mutant mu opioid receptor): hypersensitivity
sensitivity of the receptor to ligand stimulation vs wild-type (mu opioid receptor; listed as mutant receptor): responsive to a lower concentration of ligand than the wild-type receptor

B2: Leu325Glu CCK-BR mutant: human CCK-BR with point mutation Leu325Glu in the third intracellular loop (protein, UniProt P32239 1-447, looked up, variant L325E)
Gastrin/cholecystokinin type …: T3 sequence (P32239 1-447 L325E)
basal activity detected by the SMS and SRE response elements (CCK-BR [7]; SMS and SRE response elements, Gαq coupled, FIG. 3): increase in basal activity
basal level activity vs wild-type CCK-BR (CCK-BR [7]; SMS-Luc, HEK293 cells): increased basal level activity
agonist-independent constitutive activity (inositol phosphate production) (CCK-BR [8]): triggers constitutive production of inositol phosphates to levels exceeding wild-type CCK-BR
